From patent US11015206B2, “Compositions and methods comprising sequences having hydroxyphenylpyruvate dioxygenase (HPPD) activity” (PIONEER HI-BRED INTERNATIONAL, INC., priority 2014, dated 2021)
Substitutions are numbered along the chain they refer to. Each block holds one molecule with its values, some of them ahead of it.

How the values were obtained:
[1] = system: 4-hydroxyphenylpyruvate dioxygenase (HPPD); assay: OFF rate ratio: release of inhibitor from pre-formed enzyme-inhibitor complex; type: biochemical, Z. mays; conditions: for OFF rate ratio: Table 7, tembotrione, combinatorial variants; for Insensitivity, isoxaflutole (DKN), Rate ratio OFF: inhibitor diketonitrile form of isoxaflutole (DKN); for Insensitivity, mesotrione, Rate ratio OFF: inhibitor mesotrione; for Insensitivity, sulcotrione, Rate ratio OFF: inhibitor sulcotrione; for Insensitivity, tembotrione, Rate ratio OFF: inhibitor tembotrione; for Insensitivity, topramezone, Rate ratio OFF: inhibitor topramezone
Summary of the method: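 HPPD (7.2 μM) pre-incubated 1 h at RT with inhibitor (8 μM), then diluted into 25 mM Hepes pH 7, 2 mM ascorbate, 10 μM FeSO4, 100 μM HPP, 50 nM HGD; A320 followed 12 min. Ratio = steady-state rate with inhibitor over initial rate of inhibitor-free enzyme.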

[2] = system: 4-hydroxyphenylpyruvate dioxygenase (HPPD); assay: Insensitivity parameter (ON × OFF) and trait fitness (ON × OFF × kcat/KM or × kcat); type: biochemical, Z. mays; parameters: key to ON × OFF / Insensitivity, mesotrione, ON × OFF / Insensitivity, tembotrione, ON × OFF / Insensitivity, topramezone, ON × OFF / Insensitivity, sulcotrione, ON × OFF / Insensitivity, isoxaflutole (DKN), ON × OFF: insensitivity = ON rate ratio × OFF rate ratio (surrogate for KD); conditions: for Insensitivity, isoxaflutole (DKN), ON × OFF / Insensitivity, isoxaflutole (DKN), Trait fitness: inhibitor diketonitrile form of isoxaflutole (DKN); for Insensitivity, mesotrione, ON × OFF / Insensitivity, mesotrione, Trait Fitness: inhibitor mesotrione; for Insensitivity, sulcotrione, ON × OFF / Insensitivity, sulcotrione, Trait fitness: inhibitor sulcotrione; for Insensitivity, tembotrione, ON × OFF / Insensitivity, tembotrione, Trait fitness: inhibitor tembotrione; for Insensitivity, topramezone, ON × OFF / Insensitivity, topramezone, Trait Fitness: inhibitor topramezone
Summary of the method: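 Calculated, not measured directly: ON rate ratio × OFF rate ratio gives an insensitivity parameter serving as a KD surrogate.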

[3] = Table 7, tembotrione, combinatorial variants

OFF rate ratio [1]: 0.249 | Insensitivity, isoxaflutole (DKN), Rate ratio OFF [1]: 0.44 | Insensitivity, mesotrione, Rate ratio OFF [1]: 1.00 | Insensitivity, sulcotrione, Rate ratio OFF [1]: 1.22 | Insensitivity, tembotrione, Rate ratio OFF [1]: 0.43 | Insensitivity, topramezone, Rate ratio OFF [1]: 0.60 | ON × OFF ([2]; Megatable 3, shuffled variants): 0.173 | ON × OFF [2, 3]: 0.173 | Insensitivity, isoxaflutole (DKN), ON × OFF [2]: 0.36 | Insensitivity, isoxaflutole (DKN), Trait fitness [2]: 10.45 | Insensitivity, mesotrione, ON × OFF [2]: 0.67 | Insensitivity, mesotrione, Trait Fitness [2]: 19.6 | Insensitivity, sulcotrione, ON × OFF [2]: 0.97 | Insensitivity, sulcotrione, Trait fitness [2]: 28.4 | Insensitivity, tembotrione, ON × OFF [2]: 0.36 | Insensitivity, tembotrione, Trait fitness [2]: 10.43 | Insensitivity, topramezone, ON × OFF [2]: 0.51 | Insensitivity, topramezone, Trait Fitness [2]: 14.86
B4: P056028-A-01 (protein)
chain: MGPTPTATAAGAAVAAASAAEQAAFRLVGHRNFVRFNPRSDRFQTLAFHHVELWCADAASAAGRFSFALGVPLAARSDLSTGNSAHASLLLRSGSLSLLFTAPYAHGADAATAALPSFSAAAARRFAADHGLAVRAVALRVADAEDAFRASVAAGARPAFGPVDLGRGFRLAEVELYGDVVLRYVSYPDGAAGEPFLPGFEGVASPGAADYGLSRFDHIVGNVPELAPAAAYMAGFTGFHEFAEFTTEDVGTTESGLNSMALANNSENVLLPLNEPVHGTKRRSQIQTFLDHHGGPGVQHIALASDDVLRTLREMRARSAMGGFEFLPPPLSDYYDGVRRCAGDVLTEAQINECQELGVMVDRDDEGVLLQIFTKPVGDRPTFFLEIIQRIGCMEKDEKGQEYQKGGCGGFGKGNFGQLFKSIEDYEKSLEAKRAAAAATAQGS
modifications: Zea mays variant form created by artificial means.
ON × OFF × kcat ([2]; Megatable 3, shuffled variants): 6.78 | ON × OFF × kcat [2, 3]: 6.78

OFF rate ratio [1]: 0.273 | Insensitivity, isoxaflutole (DKN), Rate ratio OFF [1]: 0.39 | Insensitivity, mesotrione, Rate ratio OFF [1]: 1.00 | Insensitivity, sulcotrione, Rate ratio OFF [1]: 1.13 | Insensitivity, tembotrione, Rate ratio OFF [1]: 0.33 | Insensitivity, topramezone, Rate ratio OFF [1]: 0.57 | ON × OFF ([2]; Megatable 3, shuffled variants): 0.208 | ON × OFF [2, 3]: 0.208 | Insensitivity, isoxaflutole (DKN), ON × OFF [2]: 0.17 | Insensitivity, isoxaflutole (DKN), Trait fitness [2]: 3.40 | Insensitivity, mesotrione, ON × OFF [2]: 0.72 | Insensitivity, mesotrione, Trait Fitness [2]: 14.0 | Insensitivity, sulcotrione, ON × OFF [2]: 0.50 | Insensitivity, sulcotrione, Trait fitness [2]: 9.69 | Insensitivity, tembotrione, ON × OFF [2]: 0.27 | Insensitivity, tembotrione, Trait fitness [2]: 5.25 | Insensitivity, topramezone, ON × OFF [2]: 0.26 | Insensitivity, topramezone, Trait Fitness [2]: 5.04
B5: 9070Q366E (protein)
chain: B4 chain with R434Q
modifications: Zea mays variant form created by artificial means.
ON × OFF × kcat ([2]; Megatable 3, shuffled variants): 4.18 | ON × OFF × kcat [2, 3]: 4.18

OFF rate ratio [1]: 0.187 | Insensitivity, isoxaflutole (DKN), Rate ratio OFF [1]: 0.33 | Insensitivity, mesotrione, Rate ratio OFF [1]: 1.00 | Insensitivity, sulcotrione, Rate ratio OFF [1]: 0.88 | Insensitivity, tembotrione, Rate ratio OFF [1]: 0.35 | Insensitivity, topramezone, Rate ratio OFF [1]: 0.48 | ON × OFF ([2]; Megatable 3, shuffled variants): 0.121 | ON × OFF [2, 3]: 0.121 | Insensitivity, isoxaflutole (DKN), ON × OFF [2]: 0.25 | Insensitivity, isoxaflutole (DKN), Trait fitness [2]: 7.93 | Insensitivity, mesotrione, ON × OFF [2]: 0.67 | Insensitivity, mesotrione, Trait Fitness [2]: 21.2 | Insensitivity, sulcotrione, ON × OFF [2]: 0.68 | Insensitivity, sulcotrione, Trait fitness [2]: 21.6 | Insensitivity, tembotrione, ON × OFF [2]: 0.26 | Insensitivity, tembotrione, Trait fitness [2]: 8.28 | Insensitivity, topramezone, ON × OFF [2]: 0.38 | Insensitivity, topramezone, Trait Fitness [2]: 12.12
B6: P056028-B-09 (protein)
chain: B4 chain with G337D, M394V
modifications: Zea mays variant form created by artificial means.
ON × OFF × kcat ([2]; Megatable 3, shuffled variants): 4.19 | ON × OFF × kcat [2, 3]: 4.19

Continued, molecule first:

B1: P056028-B-02 (protein)
chain: B4 chain with P206S, E356K, K428R, R434Q, A438V
modifications: Zea mays variant form created by artificial means.
OFF rate ratio [1]: 0.469 | Insensitivity, isoxaflutole (DKN), Rate ratio OFF [1]: 0.43 | Insensitivity, mesotrione, Rate ratio OFF [1]: 1.00 | Insensitivity, sulcotrione, Rate ratio OFF [1]: 1.00 | Insensitivity, tembotrione, Rate ratio OFF [1]: 0.47 | Insensitivity, topramezone, Rate ratio OFF [1]: 0.53 | ON × OFF ([2]; Megatable 3, shuffled variants): 0.375 | ON × OFF × kcat ([2]; Megatable 3, shuffled variants): 10.58 | ON × OFF [2, 3]: 0.375 | ON × OFF × kcat [2, 3]: 10.58 | Insensitivity, isoxaflutole (DKN), ON × OFF [2]: 0.35 | Insensitivity, isoxaflutole (DKN), Trait fitness [2]: 6.78 | Insensitivity, mesotrione, ON × OFF [2]: 0.63 | Insensitivity, mesotrione, Trait Fitness [2]: 12.3 | Insensitivity, sulcotrione, ON × OFF [2]: 0.81 | Insensitivity, sulcotrione, Trait fitness [2]: 15.8 | Insensitivity, tembotrione, ON × OFF [2]: 0.37 | Insensitivity, tembotrione, Trait fitness [2]: 7.35 | Insensitivity, topramezone, ON × OFF [2]: 0.42 | Insensitivity, topramezone, Trait Fitness [2]: 8.17

B2: P056028-D-03 (protein)
chain: B4 chain with L182M, S214N, R434Q
modifications: Zea mays variant form created by artificial means.
OFF rate ratio [1]: 0.453 | Insensitivity, isoxaflutole (DKN), Rate ratio OFF [1]: 0.40 | Insensitivity, mesotrione, Rate ratio OFF [1]: 1.00 | Insensitivity, sulcotrione, Rate ratio OFF [1]: 1.11 | Insensitivity, tembotrione, Rate ratio OFF [1]: 0.45 | Insensitivity, topramezone, Rate ratio OFF [1]: 0.58 | ON × OFF ([2]; Megatable 3, shuffled variants): 0.349 | ON × OFF × kcat ([2]; Megatable 3, shuffled variants): 6.83 | ON × OFF [2, 3]: 0.349 | ON × OFF × kcat [2, 3]: 6.83 | Insensitivity, isoxaflutole (DKN), ON × OFF [2]: 0.31 | Insensitivity, isoxaflutole (DKN), Trait fitness [2]: 6.51 | Insensitivity, mesotrione, ON × OFF [2]: 0.68 | Insensitivity, mesotrione, Trait Fitness [2]: 14.5 | Insensitivity, sulcotrione, ON × OFF [2]: 0.84 | Insensitivity, sulcotrione, Trait fitness [2]: 17.9 | Insensitivity, tembotrione, ON × OFF [2]: 0.35 | Insensitivity, tembotrione, Trait fitness [2]: 7.44 | Insensitivity, topramezone, ON × OFF [2]: 0.46 | Insensitivity, topramezone, Trait Fitness [2]: 9.88

B3: P056028-A-03 (protein)
chain: B4 chain with A191G, Y211L, A432R
modifications: Zea mays variant form created by artificial means.
OFF rate ratio [1]: 0.243 | Insensitivity, isoxaflutole (DKN), Rate ratio OFF [1]: 0.43 | Insensitivity, mesotrione, Rate ratio OFF [1]: 1.00 | Insensitivity, sulcotrione, Rate ratio OFF [1]: 0.93 | Insensitivity, tembotrione, Rate ratio OFF [1]: 0.40 | Insensitivity, topramezone, Rate ratio OFF [1]: 0.47 | ON × OFF ([2]; Megatable 3, shuffled variants): 0.181 | ON × OFF × kcat ([2]; Megatable 3, shuffled variants): 4.36 | ON × OFF [2, 3]: 0.181 | ON × OFF × kcat [2, 3]: 4.36 | Insensitivity, isoxaflutole (DKN), ON × OFF [2]: 0.34 | Insensitivity, isoxaflutole (DKN), Trait fitness [2]: 7.25 | Insensitivity, mesotrione, ON × OFF [2]: 0.70 | Insensitivity, mesotrione, Trait Fitness [2]: 14.8 | Insensitivity, sulcotrione, ON × OFF [2]: 0.75 | Insensitivity, sulcotrione, Trait fitness [2]: 15.7 | Insensitivity, tembotrione, ON × OFF [2]: 0.32 | Insensitivity, tembotrione, Trait fitness [2]: 6.81 | Insensitivity, topramezone, ON × OFF [2]: 0.38 | Insensitivity, topramezone, Trait Fitness [2]: 7.97
